Here are results for 2 molecules from paper PMC9896810, “Crk proteins activate the Rap1 guanine nucleotide exchange factor C3G by segregated adaptor-dependent and -independent mechanisms” (Cell Communication and Signaling : CCS, 2023).

The target in assay [1] is T1, Src-phosphorylated C3G-AAPA (human, UniProt Q13905-1 4-1077, P283A | P284A | L286 | P287 | P289A | P453A | P454A | L456A | P457A | K459A | …, phosphotyrosines from phosphorylation in vitro with Src (sites not given)).
T1 construct: human C3G isoform a, residues 4-1077; only P3 kept, P1, P2 and P4 mutated to Ala; also called pC3G-AAPA; source: E. coli BL21 (DE3), purified; phosphorylated in vitro with the recombinant kinase domain of Src, then SEC; not shown: His, N-terminal, cleaved; Halo, N-terminal, cleaved
T1 sequence (looked up): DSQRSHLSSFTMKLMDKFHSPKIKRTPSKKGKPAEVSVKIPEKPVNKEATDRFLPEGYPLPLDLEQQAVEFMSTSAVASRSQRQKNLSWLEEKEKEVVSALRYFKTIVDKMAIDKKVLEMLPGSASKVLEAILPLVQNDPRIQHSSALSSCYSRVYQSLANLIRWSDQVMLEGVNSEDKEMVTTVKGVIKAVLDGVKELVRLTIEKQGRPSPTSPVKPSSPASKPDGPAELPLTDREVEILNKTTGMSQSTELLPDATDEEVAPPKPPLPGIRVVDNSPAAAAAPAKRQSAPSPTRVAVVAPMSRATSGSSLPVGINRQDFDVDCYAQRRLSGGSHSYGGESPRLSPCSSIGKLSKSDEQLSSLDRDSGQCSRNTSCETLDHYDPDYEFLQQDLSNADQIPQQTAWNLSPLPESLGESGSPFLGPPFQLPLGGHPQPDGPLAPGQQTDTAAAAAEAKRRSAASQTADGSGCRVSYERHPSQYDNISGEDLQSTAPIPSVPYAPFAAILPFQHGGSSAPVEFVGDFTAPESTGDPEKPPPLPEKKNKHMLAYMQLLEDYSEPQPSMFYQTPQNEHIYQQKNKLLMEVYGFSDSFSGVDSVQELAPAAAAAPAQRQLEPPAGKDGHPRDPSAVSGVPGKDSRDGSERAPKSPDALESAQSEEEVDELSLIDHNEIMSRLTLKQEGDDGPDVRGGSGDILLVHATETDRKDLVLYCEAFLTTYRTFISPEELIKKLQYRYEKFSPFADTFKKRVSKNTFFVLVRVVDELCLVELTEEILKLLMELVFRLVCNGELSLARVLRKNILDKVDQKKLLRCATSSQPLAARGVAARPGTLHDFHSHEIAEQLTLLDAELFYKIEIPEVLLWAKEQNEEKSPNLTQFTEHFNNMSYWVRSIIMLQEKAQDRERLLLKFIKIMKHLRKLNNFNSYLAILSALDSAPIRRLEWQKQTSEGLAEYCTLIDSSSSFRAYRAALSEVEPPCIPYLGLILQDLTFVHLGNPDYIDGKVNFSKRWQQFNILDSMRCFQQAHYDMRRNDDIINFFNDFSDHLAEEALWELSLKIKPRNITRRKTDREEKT
Description: ITC; single-PRM mutant of C3G in the cell titrated with CrkL or CrkL-SH3N, 25 °C, 300 mM NaCl, pH 7.5; SEDPHAT, 1:1 heteroassociation model; N is the competent fraction of C3G. The note with it: both partners purified. On the technique in general: Isothermal titration calorimetry measures the heat released or taken up as one component is titrated into another.

For a further assay, the target named is T2, C3G-APAA (human, UniProt Q13905-1 4-1077, P283A | P284A | L286 | P287 | P289A | P540A | P541A | L543A | P544A | K546A | …).
T2 construct: human C3G isoform a, residues 4-1077; only P2 kept, P1, P3 and P4 mutated to Ala; source: E. coli BL21 (DE3), purified (IMAC, TEV digestion, reversed IMAC, SEC); not shown: His, N-terminal, cleaved; Halo, N-terminal, cleaved
T2 sequence (looked up): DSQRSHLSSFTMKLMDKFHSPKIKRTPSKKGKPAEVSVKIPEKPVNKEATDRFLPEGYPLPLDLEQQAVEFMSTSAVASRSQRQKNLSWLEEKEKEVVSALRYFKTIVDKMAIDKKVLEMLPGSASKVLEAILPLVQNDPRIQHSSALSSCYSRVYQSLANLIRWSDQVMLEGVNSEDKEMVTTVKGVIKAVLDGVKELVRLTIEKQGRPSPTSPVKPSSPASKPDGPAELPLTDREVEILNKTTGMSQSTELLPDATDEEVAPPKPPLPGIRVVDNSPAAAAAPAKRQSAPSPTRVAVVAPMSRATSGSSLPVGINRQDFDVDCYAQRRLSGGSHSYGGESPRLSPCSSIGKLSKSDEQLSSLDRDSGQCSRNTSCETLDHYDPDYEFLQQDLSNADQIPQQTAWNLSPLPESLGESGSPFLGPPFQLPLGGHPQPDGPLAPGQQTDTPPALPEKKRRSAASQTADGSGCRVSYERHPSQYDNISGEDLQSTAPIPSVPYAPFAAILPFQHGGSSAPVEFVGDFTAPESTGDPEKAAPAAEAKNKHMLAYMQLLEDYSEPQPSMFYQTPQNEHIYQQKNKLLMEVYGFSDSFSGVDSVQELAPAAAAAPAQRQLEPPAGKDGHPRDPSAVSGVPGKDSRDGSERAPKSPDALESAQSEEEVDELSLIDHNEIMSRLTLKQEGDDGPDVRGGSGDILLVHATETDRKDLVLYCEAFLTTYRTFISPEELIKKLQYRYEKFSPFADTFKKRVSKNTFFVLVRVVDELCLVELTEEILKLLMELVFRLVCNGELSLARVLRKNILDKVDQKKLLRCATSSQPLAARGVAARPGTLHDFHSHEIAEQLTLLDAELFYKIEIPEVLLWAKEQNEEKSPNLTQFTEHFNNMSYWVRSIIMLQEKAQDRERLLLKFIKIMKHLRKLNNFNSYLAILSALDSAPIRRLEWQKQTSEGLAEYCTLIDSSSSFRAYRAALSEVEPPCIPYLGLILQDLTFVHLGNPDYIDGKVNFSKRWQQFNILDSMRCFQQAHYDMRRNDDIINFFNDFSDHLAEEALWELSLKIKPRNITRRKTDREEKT
The assay is described as above. The note with it: both partners purified.

B1: CrkL-SH3N (domain or fragment, human, UniProt P46109 125-182, looked up)
chain: LEYVRTLYDFPGNDAEDLPFKKGEILVIIEKPEEQWWSARNKDGRVGMIPVPYVEKLV
notes: human CrkL, SH3N domain, residues 125-182, in pETEV15b; source: E. coli BL21 (DE3), purified (IMAC, TEV digestion, SEC); not shown: His, N-terminal, cleaved
Usually Kd stands for a measure of binding affinity in units of concentration. Lower therefore signals higher affinity. Broadly, the stoichiometry N is a count of units in the complex or per binding partner. Turning to B1, in assay [1], the Kd came to 2100 nM and the “stoichiometry N” value turned out to be 0.08.

B2: CrkL (full-length) (natural protein, human, UniProt P46109 1-303, looked up)
chain: MSSARFDSSDRSAWYMGPVSRQEAQTRLQGQRHGMFLVRDSSTCPGDYVLSVSENSRVSHYIINSLPNRRFKIGDQEFDHLPALLEFYKIHYLDTTTLIEPAPRYPSPPMGSVSAPNLPTAEDNLEYVRTLYDFPGNDAEDLPFKKGEILVIIEKPEEQWWSARNKDGRVGMIPVPYVEKLVRSSPHGKHGNRNSNSYGIPEPAHAYAQPQTTTPLPAVSGSPGAAITPLPSTQNGPVFAKAIQKRVPCAYDKTALALEVGDIVKVTRMNINGQWEGEVNGRKGLFPFTHVKIFDPQNPDENE
notes: human CrkL, residues 1-303, in pETEV15b; also called Crk-like protein; source: E. coli BL21 (DE3), purified (IMAC, TEV digestion, SEC); not shown: His, N-terminal, cleaved
For B2, in the assay with C3G-APAA, the affinity, expressed as Kd, was 1200 nM and the “stoichiometry N” value is 0.78.
